Laboratory results: the RNAGym collection of RNA variant scans (doi:10.1073/pnas.2313332121)
Variants at the floor of the assay were thinned out.

B1: TPR 5TU (parent)
chain: GGAUCUUCUCGAUCUAACAAAAAAGACAAAUCUGCCACAAAGCUUGAGAGCAUCUUCGGAUGCAGAGGCGGCAGCCUUCGGUGGCGCGAUAGCGCCAACGUUCUCAACUAUGACACGCAAAACGCGUGCUCCGUUGAAUGGAGUUUAUCAUG

Variants of: B1
Assay: polymerase ribozyme fitness, log enrichment relative to wild type (log ratio); higher = more active; in vitro selection for triplet polymerase activity
Procedure, shortened: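 Libraries of mutants in each subunit of a heterodimeric triplet polymerase ribozyme were generated by PCR and transcribed. In triplicate, each went through one in vitro selection round: annealing with biotinylated primer, partner subunit and triplets; frozen incubation at −7 °C; gel excision of extended constructs; streptavidin-bead capture; RT-PCR. Fitness, taken from Illumina sequencing of input and output libraries, is the logarithm of a genotype's enrichment over wild-type enrichment, averaged across replicates with inverse-variance weights. The logarithm is base 2, and genotypes needed ≥10 input reads and ≥1 read per output to be kept.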

**Q.** With GGAUCUUCUCGAUCUAACAAAAAAGACAAAUCUCCCACAAAGCUUGAGAGCGUCUUCGGAUGCAGAGGCGGCAGCCUUCGGUGACGCGAUAGCGCCAACGUUCUCAACAAUGACACGCAAAACGUGUGCUCCGUUGAAUGGAGUUUAUCAUG [G34C A52G G84A U109A C125U] as the variant, how does the “polymerase ribozyme fitness (log ratio)” value read?
**A.** The value was at most -4.2.

**Q.** Which “polymerase ribozyme fitness (log ratio)” value does the source give for GGAUCUUCUCGAUCUAACAAAAAAGACAAAUCUGCCACAAAGCUUGAGAUCAUCUUCGGAUGCAGAGGCGGCAGCCUUCGGUAGCGCGAUAGCGCCUUCGUUCUCAACUAUGACACGCAAAACGCGUGCUCCGUUGAAUGGAGUUUAUCAUG [G50U G83A A97U A98U] here?
**A.** Its value is 0.0748.

**Q.** For GGAUCUUCUCGAUCUAACAAAAAAGACAAAUCUGCCACAAAGCUUGAGAGCAUCUUCGGAUGCAGAGGCGGCAGCCUUCGGUGGCGCGAUAGCGCCAACGGUCUCAACUAUGACACGCAAAACGCGUGCUCCGUUGAUUGGAGUUUAUCAUG [U101G A138U], which “polymerase ribozyme fitness (log ratio)” value is on record?
**A.** Its value is -3.25.

**Q.** For GGAUCUUCUCGAUCUAACAAAAAAGACAAAGCUGCCACAAAGCUUGAGAGCAUCUUCGGAUGCAGAGGCGGCAGCCUUCGGUGGCGCGAUAGCUCCAACGUUCUCAACUAUGACACGCUAAACGCGUGCUCCGUUGAAUGGAGUUUAUCAUG [U31G G94U A119U], which “polymerase ribozyme fitness (log ratio)” value is on record?
**A.** The value was -0.547.

**Q.** For GGAUCUUCUCGAUCUAACAAAAAAGACAAAUCUGCCACAAAGCUUGAGAGCAUCUUCGGAAGCAGAGGCGGCAGCCUUCGGUGGCGCGCUAGCGCCAACGUUCUCAUCUAUGACACUCAAAACGCGUGCUCCGUUGAAUGGAGGUUAUCAAG [U61A A89C A107U G117U U144G U151A], which “polymerase ribozyme fitness (log ratio)” value is on record?
**A.** The value was at most -4.2.

**Q.** With GGAUCUUCUCGAUCUAACAAAAAAGACAAAUCUGCCACAAAGCUUGAGAGCAUCUUCGGAUGCAGAGGCGGCAGCCUUCGGUGGCGCGAUAGCGCCAACGUUCUCAACUAUGACACGCAAAACGCGUGCUCCGAUGAAUAGAGUUUAUCAUG [U134A G140A] as the variant, how does the “polymerase ribozyme fitness (log ratio)” value read?
**A.** Its value is -3.58.

**Q.** With GGAUCUUCUCGAUCUAACAAAAAAGACAAAUUUGCCACAAAGCUUGAGAGCAUCUUCGGAUGCAGAGGCGGCAGCCUUCGGUGGCGCGAUAGCUCCAACGUUCUCAACUAUGACAGGCAAAACGCGUGCUCCGUUGAAUGGAGUUUAUCAUG [C32U G94U C116G] as the variant, how does the “polymerase ribozyme fitness (log ratio)” value read?
**A.** Its value is -3.95.

**Q.** With GGAUCUUCUCGAUCGAACAACAAAGACAAAUCUGCCACAAAGCUUGAGAGCAUCUUCGGAUGCAGAGGCGGCAGCCUUCGGUUGCGCGGUAGCGCGAACGUUCUCAACUAUGACACGCAAAACGCGAGCUCCGUUGAAUGGAGUUUAUCAUG [U15G A21C G83U A89G C96G U127A] as the variant, how does the “polymerase ribozyme fitness (log ratio)” value read?
**A.** The value was -4.13.

**Q.** Which “polymerase ribozyme fitness (log ratio)” value does the source give for GGAUCUUCUCGAUGUAACAAAAAAGACAAAUCUGCCACAAAGCUUGAGAGCAUCAUCGGAUGCAGAGGCGGCAGCCUUCGGUGGCGCGAUAUCGCCAACGUUCUCAACUAUGACACGCAAAACGCGUGCUCCGUUGAAUGGAGUUUAUCAUG [C14G U55A G92U] here?
**A.** Its value is -2.92.

**Q.** With GGAUCUUCUCGAUCUAACAAAAAAGACAAAUCUGCCACAAACCUUGAGAGCAACUUCGGAUGCAGAGGCGGCAGCCUUUGGUGGGGCGUUAGCGCCAACGUUCUCAACUAUGACACGCAAAACGUGUGCUCCGUUGAAUGGAGUUUAUCAUG [G42C U53A C79U C85G A89U C125U] as the variant, how does the “polymerase ribozyme fitness (log ratio)” value read?
**A.** The value was at most -4.2.

**Q.** For GGAUCAUCUCGAUCUAACAAAAAAGACAAAUCUGCCACAACGCUUGAGACCAUCUUCGGAUGCAGAGGCGGCAGCCUUCGGUGACGCGAUAGCGCCAACGUUCUCAACUAUGACACGCGAAACGCGUGCUCCGUUGAAUGGAGUUUAUCAUG [U6A A41C G50C G84A A119G], which “polymerase ribozyme fitness (log ratio)” value is on record?
**A.** The value was -3.27.

**Q.** For GGAUCUCCUCGAUCUAACAAAAAAGACAAAUCUGCCACAACGCUUGAGAGCAUCUUCGGAUGCAGAGGCGGCAGCCUUCGGUGGCGUGAUAGCGCCAACGUUCUCAACUAUGACACGCAAAACGCAUGCUCCGUUGAAUGGAGUUUAUCAUG [U7C A41C C87U G126A], which “polymerase ribozyme fitness (log ratio)” value is on record?
**A.** Its value is -3.82.

**Q.** With GGAUCUUCUCGAUCUAACAAAAAAGACAAAUCUACCACAAAGCUUGAGAGCAUCAUCGGAUGCAGAGGCUGCAGCCUUCUGUGGCACGAUAGCGCCAACGUUCUCAACUAUGACACGCAAAACGCGUGCUCCGUUGAAUGGAGUUUAUCAUG [G34A U55A G70U G80U G86A] as the variant, how does the “polymerase ribozyme fitness (log ratio)” value read?
**A.** Its value is at most -4.2.

**Q.** With GGAUCUUCUCUAUCUAACAAAAUAGACAAAUUUGCCACAAAGCUUGAGAGCAUCUUUAGAUGCAGAGGCGGCAGCCCUCGGUGGCGCGAUAGGGCUUACUUUCUCAACUUUGACACGCAAAACGCGUGCUCCGUUGAAUGGACUUUAUCAUG [G11U A23U C32U C57U G58A U77C C93G C96U A97U G100U A110U G143C] as the variant, how does the “polymerase ribozyme fitness (log ratio)” value read?
**A.** The value was at most -4.2.

**Q.** For GGAUCUUCUCGAUCUAACAAAAAAGACAAAUCUGCCACAAAGCUUGAGAGCAUUUUCGGAUGCAGAGGCGGCGGCCUUCGGUUGCGCGAUAGCGGCAACUUUCUCAACUAUGACACGCAAAACGCGUGCUCCGUAGAAUGGAGUUUAUCAUG [C54U A73G G83U C95G G100U U135A], which “polymerase ribozyme fitness (log ratio)” value is on record?
**A.** The value was at most -4.2.

**Q.** With GGAUCUUCUCGAUCUAACAAAAAAGACAAAUCUGCCACAAAGCUUGAAAGCAUCUUCGGAUGCAGAGGCGGCAGCCUUCGGUGGCGCGAUAGCGCCAACGUUCUCAACUAUGACACGCAAAACGCGUGCUCCGUUGAAUGGAGUUUAUCUUG [G48A A150U] as the variant, how does the “polymerase ribozyme fitness (log ratio)” value read?
**A.** The value was -0.592.

**Q.** With GGAUCUUCUCGAUCUAACAAAAAAGACAAAUCUGCCACAAAGCUUGAGAGCCACUUCGGAUGCAGAGGCGGCAGCCUUCGGUGGCGCGAUAGCGCCAACGUUCUCAACUAUGACACGCAAAACGCGUGCUCCGUUGAAUGGAGUUUAGCAUG [A52C U53A U148G] as the variant, how does the “polymerase ribozyme fitness (log ratio)” value read?
**A.** Its value is at most -4.2.

**Q.** Which “polymerase ribozyme fitness (log ratio)” value does the source give for GGAUCUUCUCGAUCUAACAAAAAAGACAAAACUGCCACAAAGCUUGAGAGCAUCUUCGGAUGCAGAGGCGGCAGCCUUCGGUGGCGCGAUAGGGUAAACGUUCUCAACUAUGGCACGCAAAACGCGUGCUCCGUUGAAUGGAGUUUAUCAUG [U31A C93G C95U C96A A113G] here?
**A.** Its value is at most -4.2.

**Q.** With GGAUCUUCUCGAUCUAACAAAAAAGGCAAAUCUGCCACAAAGCUUGAGAGCAUCUUCGGAUGCAGAGGCGGCAGCCUUCGGUGGCGCCAUCGAGCCAACGUUCUCAACUAUGACAUGCAAAACGCGUGCUCCGUUGAAUGGAGUUUAUCAUG [A26G G88C A91C C93A C116U] as the variant, how does the “polymerase ribozyme fitness (log ratio)” value read?
**A.** Its value is at most -4.2.
